Columns and labels:
[1] = biological target: dockerin D37 (group 3) of R. flavefaciens FD-1 (Ruminococcus flavefaciens FD-1); experiment: ITC; 10-uL aliquots of 80-180 uM cohesin injected into 20-30 uM thioredoxin-fused dockerin; 308.16 K; 50 mM Na-HEPES pH 7.5, 2 mM CaCl2, 0.5 mM TCEP; single-site model
[2] = biological target: dockerin D61 (group 6) of R. flavefaciens FD-1 (Ruminococcus flavefaciens FD-1); experiment: as above
[3] = biological target: group-3 dockerin D37, thioredoxin-fused (pETG-20A) (Ruminococcus flavefaciens FD-1); experiment: ITC; thioredoxin-fused dockerin (20-30 uM) in the cell, cohesin (80-180 uM) injected; 308.16 K; 50 mM Na-HEPES pH 7.5, 2 mM CaCl2, 0.5 mM TCEP; single-site model
[4] = biological target: group-6 dockerin D61, thioredoxin-fused (pETG-20A) (Ruminococcus flavefaciens FD-1); experiment: as above
[5] = biological target: ScaH dockerin D49, thioredoxin-fused (pETG-20A) (Ruminococcus flavefaciens FD-1); experiment: as above
Chain of ScaH dockerin D49, thioredoxin-fused (pETG-20A) (Ruminococcus flavefaciens FD-1) (main, as listed by the source): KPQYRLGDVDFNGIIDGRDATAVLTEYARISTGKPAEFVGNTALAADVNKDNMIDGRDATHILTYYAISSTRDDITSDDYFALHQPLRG

[6] = biological target: group-2 dockerin D35 (ZP_06143271), thioredoxin-fused (pETG-20A) (Ruminococcus flavefaciens FD-1); experiment: as above
[7] = biological target: ScaE cohesin of R. flavefaciens FD-1; experiment: ELISA; conditions: read off a plot

ScaC cohesin of R. flavefaciens FD-1 (domain or fragment)
Ka [1]: 1e+08 M⁻¹ | stoichiometry N [1]: 1 | Ka [2]: 1e+08 M⁻¹ | stoichiometry N [2]: 1

ScaC cohesin, His-tagged (pET21a) (domain or fragment)
Ka [3]: 2.69e+08 M⁻¹ | Ka [4]: 3.54e+08 M⁻¹

ScaE cohesin, His-tagged (pET21a) (domain or fragment)
Ka [5]: 1.56e+06 M⁻¹ | Ka [6]: 6.17e+07 M⁻¹

dockerin of ScaH, ZP_06142361 (Coh-Doc) G11A; R12A
other: pEC50 ([7]; parent: est. 10.2): 10

dockerin of ScaH, ZP_06142361 (Coh-Doc) G11A; R12A; G50A; R51A
other: pEC50 ([7]; parent: est. 10.2): 9.1

dockerin of ScaH, ZP_06142361 (Coh-Doc) G50A; R51A
other: pEC50 ([7]; parent: est. 10.2): 9.9

dockerin of the peptidase ZP_06142181 (Peptidase-UNK-Doc) G11A; R12A
other: pEC50 ([7]; parent: est. 8.6): 8.6

dockerin of the peptidase ZP_06142181 (Peptidase-UNK-Doc) G11A; R12A; G50A; R51A
other: pEC50 ([7]; parent: est. 8.6): 7.6

dockerin of the peptidase ZP_06142181 (Peptidase-UNK-Doc) G50A; R51A
other: pEC50 ([7]; parent: est. 8.6): 8.2

From paper PMC5301203
